Data reported in the DeepSol protein solubility set.

Test: soluble on expression in E. coli; label from the status in PepcDB or PDB records

Sequence	soluble on expression in E. coli
MAIYSFKMENISRGEGQSSVNSAAYRHRKVFFDNRTGEVCGRKTAHKKDLAFAQIFAPENTPSDLIVDSETLWNAVEASEKRKDARLAKEFKIALPAELTPEQSIELTKAFVLEHFTKQGIITDVVIHDINGHNPHIHIMGTTREVLSTGFGKKVREWDKPETLDSWRKGWQNICNEFLDLYGHDERIDHRSIRVQYKEALEQATAAATNEEKAIWLAKAIETNRDPILHIPRDRWGTLAAQEQRAAEQAIRDEQKKEAVEAYFTFKDLPLDIVVDVASFRVHALAEPEEIVIPDNTGKGSSTGSQKPVLVAPVPHTRTTLKTPSTSTARTLKRAPVKVKRKKVEPRQSGVFKRFTLLVVDYIREKFVWAKKKPVPVSVDAEHDERIAENYVFDEVQGIYVPRAEHERRARFNSDTYSPTPDEIRRFPRRPLKPDQANNTLDYIPTFSWDRKPSVLQLKPSGYRDKELEHHHHHH	not soluble
MAKEKIIVENEQSVEEKLAALSKLQNTLSEIDKIKTLRGELPLEVQDLEDEIAGMQTRLENFTAGSKQLNQAVTTEKEKISTAKTLLEKYKKQLDEVRNNREFDNLSKEIEFQELEIQLSEKKIKEYNVEIQQRKTDIATLKEVLEEHSEVLAEKRGELDTIIAETKQEEEKLREKAKKLEAKIEPRLLTAFKRIRKAAHNGLAVVPVERDACGGCFNKIPPQKQLDVKLRKKIIVCEYCGRIMVDPEMGA	not soluble
MAKELCFEGITLKAFDEQYRSAINDFDLNERQQIYSSLPKEVIDDAINDVDRIANVAINDKNEVVGFFVLHRYYQHEGYDTPENVVYIRSLSINEKYQGFGYGTKIMMSLPQYVQGVFPDFNHLYLVVDAENDNAWNLYERAGFMHTATKEEGPIGKERLYYLDLDSKHVSSLKLEEESRSEVTNVHIINLMIDGQKVGFIALEQIGERMNIAAIEVDKSYRFNGIGSSALRQLPTYLRKNYDNLNVITMILFGENNDFKPLCLNSNFVEIEQTDDYVVFEKYLNY	not soluble
MAKINELLRESTTTNSNSIGRPNLVALTRATTKLIYSDIVATQRTNQPVAAFYGIKYLNPDNEFTFKTGATYAGEAGYVDREQITELTEESKLTLNKGDLFKYNNIVYKVLEDTPFATIEESDLELALQIAIVLLKVRLFSDAASTSKFESSDSEIADARFQINKWQTAVKSRKLKTGITVELAQDLEANGFDAPNFLEDLLATEMADEINKDILQSLITVSKRYKVTGITDSGFIDLSYASAPEAGRSLYRMVCEMVSHIQKESTYTATFCVASARAAAILAASGWLKHKPEDDKYLSQNAYGFLANGLPLYCDTNSPLDYVIVGVVENIGEKEIVGSIFYAPYTEGLDLDDPEHVGAFKVVVDPESLQPSIGLLVRYALSANPYTVAKDEKEARIIDGGDMDKMAGRSDLSVLLGVKLPKIIIDE	soluble
MAKKKKEILFCDYYEDWVETYKVGAIEDVTLNKYYVAARQLRDICPKLLMSDFSRKDYQLIMNEYGKTHEKQTAKDFHHHIKAAILDAYHDGLLKSDPTYRAVIKGKEPGKKKLEHHHHHH	soluble
MAKKKKKKSFNTTRPTDPPVYPVTVPFLGHIVQFGKNPLEFMQRCKRDLKSGVFTISIGGQRVTIVGDPHEHSRFFSPRNEILSPREVYTIMTPVFGEGVAYAAPYPRMREQLNFLAEELTIAKFQNFVPAIQHEVRKFMAENWKEDEGVINLLEDCGAMIINTACQCLFGEDLRKRLNARHFAQLLSKMESSLIPAAVFMPWLLRLPLPQSARCREARAELQKILGEIIVAREKEEASKDNNTSDLLGGLLKAVYRDGTRMSLHEVCGMIVAAMFAGQHTSTITTSWSMLHLMHPKNKKWLDKLHKEIDEFPAQLNYDNVMDEMPFAERCVRESIRRDPPLLMVMRMVKAEVKVGSYVVPKGDIIACSPLLSHHDEEAFPNPRLWDPERDEKVDGAFIGFGAGVHKCIGQKFALLQVKTILATAFREYDFQLLRDEVPDPDYHTMVVGPTLNQCLVKYTRKKKLPSHHHHHH	soluble
MAKKNPIQPGPEGYIPTPAAFQGCDLPPPGKALLYGEIVDEEVAMREAAKALLTRRNPTIFPGPLVLWGWNADAMEKAKAVLELAMEIPNCRIIPMPDYRPKYPKIDPEAEINPNHPNLTILHNKIEACIFVGVHCHYANLSLRMIRAGTNCFTIALCAEMGHEDAMVSLRDVHADEIRKFRDVVVEVRKELGIEWEPKLPPENPSLPKEDWVKISPLDFGEYAYLLIPRRGEIVEESE	not soluble
MAKLFFRYAAMNSGKSTQLLQIANNYESMDKKVALYTSAIDDRYGVGMITSRLNIQRESNTFDAGFDFLAHDYGDTACVLVDEAQFMTPEQAQQLHRLAHKRNIPVICFGLRTDFQGHPFPGSAWLLSLADDVEEIKTICHCGRKATMHIRIDGDGRRVKEGPQVEIGGEARYRAVCGRCFHHDLEHHHHHH	soluble
MAKQKDNYLDYVPKHNSLFECRENKKGHVEVKVHNKGIFNRIAQLIARKPRYSYIELDDFGTFVWHSIDGVRSIYDIGQLVKEHFGDKAEPLYERLCYFIKLLHKNQFIVYMNKINKQINK	not soluble
MAKRKGKGTRSESNRNLEELRRKAVEIVKRLEKVYLNPRLELEYENAFQLLVMAILAAQESDKVVNKVSKEFFKKYKTPQDIARANLEELEEDLKHINFYRRKAKLIKECCEKLIELYKGEVPKSVGELVKLPGVGRKTANMVIGGAYNLPAIIVDRHVHRVVERISLSKQKNPDKMEMELSEIVPQELWTKFSLLLLNHGKTICKARNPECEKCPILDLCEYGQKNLKGRK	soluble
MAKSSERFESLRRDIDALARRLDVPSVLIMRSLPRHMRVEASAGRLEDTYPIGAEGRKSVHEDGAKPLYCERVVDRDAPLHVRDSRQETEWAGNEDEVEFGLSNYLGYPVHAPDGTPYGTVCVLDSRPRDYSAEERALLEELRRKVEALLAETVS	not soluble
MAKVVSKANQSQGMLMFKLTLQQNFAIGTLKVREIVPYMPTTKIPYSHHHVIGTVTIRDLTVPVIDMSAAVGFRPITQEEYKNCYLIVTDCLRTVVAFMVRSIEKIIECDWKAIETPPASAGKNIFVTGITRYGDQTVQMLDVELLLSKIYPQYENANIPMLTDVERERLKA	not soluble
MAKYNEKKEKKRIAKERIDILFSLAERVFPYSPELAKRYVELALLVQQKAKVKIPRKWKRRYCKKCHAFLVPGINARVRLRQKRMPHIVVKCLECGHIMRYPYIKEIKKRRKEKMEYGGLVPR	soluble
MALDLTGYLDRINYRGATDPTLDVLRDLVSAHTGAIAFENLDPLMGVPVDDLSAEALADKLVDRRRGGYCYEHNGLIGYVLAELGYRVRRLAGRVVWLAPPDAPTPAQTHTVLAVTFPGCQGPYLVDVGFGGMTPTAPLRLETGTVQQTALEPYRLDDRGDGLVLQAMVRDEWQALYEFSTLTRPQVDLRVGSWFVSTHPTSHFVTGLMAATVADDARWNLMGRNLAIHRRGGTEKILLEDAAAVVDTLGDRFGINVADVGERGRLEARIDKVCFGAENR	soluble
MALKKAMLLIKNGKILTMTGVNYDSGSVLIDNGKIIKVGENIDVDESCEIIDADGFWVMPGIIEAHCHVGIQEEKRGFEGNDCNEMTNPVTPYLRALDGINPMDSAFYTALTAGITGIMVGPGSANVVGGQWMFLKTYGRAIDKMVVLQPSAMKIAFGENPKANYDKKNMMPSTRIAIAAMLREELFEAQQYYEKRKNAEKSGDSFNKEFRKECWVPVFDKKIPLKAHVHRADDILTAIRIAKEFNLNLTLDHCTEGHLVAKEIKESGFPAIVGPTLTSRNKIETQYADFKTAGILHNEGVKVAITTNHPVTRIQDLLICAGLAAKEGLGIEEGLKAITINPAEICNVANRVGSIEVNKDADIAIFDGNPMETFTKTMYTIINGEIVYSLKDKNYEGHHHHHH	soluble
MALKLKLKMPSSSASNSPQPPPPESHSPEQPKLPKLKIKAPSKTPVSSTPDSSMALKRPQEEQSTGENPKKLKLSLSKTKENGRPKGLPRVRIKPTRIPGEGYDSEAPDLEDDPLIEQGIIIRFLNDSNLDFVHNAVDSGDLTGLNVKWVTKEKAIVNVNSILYSARLIDLPTVTEIFKTVDRKNVFKTLDICQILLVLHVVDPAKLNIDTDFEVPEEFLFNHPFYKYVKNNEIKKKRMVLKDGLLQPFQDVYRRFRPTKVDHRVILDIESKVDELIKLDNEADESHFELLDSKTAQQSRFGTSATPSAVNSPVAMRMEGPEVEPGRFSNVQDHENEEDDEEEDEEDYDDDDLQDDDMELHLEQELEKVLDGELSESEVTIPTSMAGILTNDVGNGISIMTNGEQSEDIDGDEQDDEEEEEEEEEDGDDEEEEEEEEEEENEEGDSESGKQHVKLLEEEIFELEKAVAHHQKNLSTASSKMLRMKFQNTYTSLKASLDSKKRDLAKLLDEQEQQQEQKQPKTTVDEKSQEAEHSVEAEAEIEAQVEADAEDGDEDEDIDQGDDMNQENNNNNGDSDIDEDNADDLDDLF	not soluble
MALLHGGQLQQVAKQYNIPPSDWIDVSTGIAPISYPIPIIPLSVWQQLPQQNPDLIAAAQQYYQCSQLMITNGSQAIIKALPALYRQKNAESQDVYLPERGYKEHAHAWKNAGYNLHFYQEFLPEMSEILPNSVLVIINPNNPTGQFFNGQVIAQYQERLKLINGLLVLDEAFIDVVPGNQSYYNQLENSHSLVLRSFGKFFGLAGIRIGFLVANGYWCGAFKELLGPWQINGPAQLIAQHALQDTSWQTRQKDTLTRLRIAQEHMLRQAFPQIILREINGCNLFLTLSFHQQDTAKKLYHLLCQQGVYCRLADEQDTLRFGITTEELLERLTLACRQAYQQLT	not soluble
MALPKPSDGTLPAEVQGRGQRRRLVWTPSQSKALQACFERNPYPGITTRERLAQAIGIPEPRVQILFQNERSCQLRQHWH	soluble
MALRWGIVSVGLISSDFTAVLQTLPRSEHQVVAVAARDLSRAKEFAQKHDIPKAYGSYEELAKDPNVEVAYVGTQHPQHKAAVMLCLAAGKAVLCEKPMGVNAAEVREMVTEARSRGLFLMEAIWTRFFPASEALRSVLAQGTLGDLRVARAEFGKNLTHVPRAVDWAQAGGALLDLGIYCVQFISMVFGGQKPEKISVMGRRHETGVDDTVTVLLQYPGEVHGSFTCSITAQLSNTASVSGTKGMAQLLNPCWCPTELVVKGEHKEFLLPPVPKNCNFDNGAGMSYEAKHVRECLRKGLKESPVIPLVESELLADILEEVRRAIGVTFPQDKH	soluble
MALSHSVKERTISENSLIILLQGLQGQITTVDLRDESVARGRIDNVDAFMNIRLANVTYTDRWGHQVELDDLFVTGRNVRYVHIPDGVDITATIEQQLQIIHRVRNFGGKGQGRREFPSKRP	soluble
MALVLTFLGKGGVGRTTVAIAAAKKLAQAGQRVLVLGQDPSLAWQWGITLSETAQGVEANVDGLLLSSTHLLERGWEKLKEVEAQYLRSPALKNIYGEELGVLPGMDEVLVLNALREYELSGRYDVLIYDGPGNLSTLRMLGIPEIASWYWRRFQKVLADSEVVQTLSPFVQPVASAVLSVNWSPDQMLNHPDGPQNLLQQGKAAIADPNRFAAYLVTSTDSLAQKAAQSYWGGAQQVGVTVKGVIQTPLGNGSLDANLFDPLLIAALPSYNQGNWQPLMDALPNPQAMGSAPRPLEIDVNARQVKVFLPGFDKRQVKLTQSGPELTIEAGDQRRNIDLPGNLRGKGVTGAKFQGGYLIVSFLEHHHHHH	not soluble
MAMKERYLIIDGYNMIGQSPTLSAIAKENLEEARMQLIDAIANYNAVISDEIICVFDAYDQSGVEREYMYHGVKTIFTKEKETADSFIERYVYELYDKHTKHITVVTSDMSEQHAIFGSGAYRISSREMWRDLKENEIDVSKSLDDISENKPRTRIPLSSEILAEFEKIRRGHHKKLEHHHHHH	not soluble
MAMNNILGLFAHSPLKPLQKHSEKVTECSDLLIPFFQTTFSKNWEQAEEKRLEISQCEREADSLKREIRLKLPRGLFLPIDRTDLLELVTQQDKLANYAKDIAGRMIGRQFGIPEEMQEEFLHYVKRSLDAIHQAHRVIEEMDKLLETGFKGRELKLVNDMIQELDSIEDDTDQMQIKLRKMLYTIESRYNPIDVMFLYKIIEWVGVLADQAQRVGSRIELMLARS	not soluble
